Source: US20090215689A1 (TECNOGEN S P A, published 2009)
Values belong to the binder of their own block, whether it stands above or below them.

How the values were obtained:
[1] = target: T1, Human recombinant FGF2 (Fibroblast growth factor-2) (human, UniProt P09038 134-288, limits assumed); assay: solid phase assay: peptide-coated wells (200 µg/well), FGF2 80 nM, detection with anti-FGF2 antibody
Procedure: (§1) The response was recorded at the end of injection and plotted as a function of the antagonist concentration.
(§2) Then, wells were overcoated for 2 hours at room temperature with 5% dry milk in coating buffer. […] Then, 100 μl/well of the chromogen substrate 2,29-azinobis(3-ethylbenzthiazolinesulfonic acid) were added. Absorbance values were read at 405 nm in an automatic ELISA reader.

[2] = target: T1, Human recombinant FGF2 (Fibroblast …); assay: SPR competition: competitor with FGF2 0.8 µM in the mobile phase over immobilized PTX3
From the text: (§3) A BIAcore X apparatus (BIAcore Inc, Piscataway, N.J.) was used.

[3] = target: T1, Human recombinant FGF2 (Fibroblast …); assay: SPR competition (printed as ID50): competitor with FGF2 0.8 µM in the mobile phase over immobilized PTX3
Procedure: as §1, §3

[4] = target: T1, Human recombinant FGF2 (Fibroblast …); assay: solid phase assay: peptide-coated wells (200 µg/well), FGF2 80 nM, detection with anti-FGF2 antibody; remark: listed apart in the source
Procedure: as §2

[5] = target: T1, Human recombinant FGF2 (Fibroblast …); assay: SPR competition: FGF2 0.8 µM over immobilized PTX3 with the peptide in the mobile phase
Procedure: The response was recorded at the end of injection and plotted as a function of the antagonist concentration. […] The response was recorded at the end of injection and plotted as a function of the antagonist concentration.
as §3

T1 sequence (P09038 134-288 limits assumed): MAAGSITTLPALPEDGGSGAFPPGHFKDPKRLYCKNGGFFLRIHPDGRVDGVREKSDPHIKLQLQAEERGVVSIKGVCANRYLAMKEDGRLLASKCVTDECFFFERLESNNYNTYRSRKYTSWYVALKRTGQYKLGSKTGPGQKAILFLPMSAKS

Binder: RGELQRLREELGRLAESLAR [synthetic peptide PTX3(82-101)]
binding result [1]: no binding (tested: FGF2 80 nM)

Binder: DNEIDNGLHPTEDPTPCDCGQEHSEWDKLF [synthetic peptide PTX3(31-60)]
binding result [4]: no binding (tested: FGF2 80 nM)

Further lines, results first:

fold lower potency than free full length PTX3 [2]: 30 fold
IC50 [3]: 30 µM
B1: synthetic peptide PTX3(82-110) (peptide)
peptide: RGELQRLREELGRLAESLARPCAPGAPAE
notes: also called parental peptide PTX3(82-110)

binding result [5]: no binding (tested: about 3000 µM)
Binder: RGELQRLREELGRLA [synthetic peptide PTX3(82-96)]

binding result [4]: no binding (tested: FGF2 80 nM)
Binder: DKLFIMLENSQMRERMLLQATDDVLRGEL [synthetic peptide PTX3(57-85)]
